From publication PMC4670574 (2016) come the findings set out here.

For the assay, the target named is T1, pCdc25C phosphopeptide (Homo sapiens).
T1 chain: EQPL[pT]PVTDL
As to the kind of experiment: ITC. (Isothermal titration calorimetry measures the heat released or taken up as one component is titrated into another.)

Square brackets hold non-standard residues; d marks the D form. Ends that are not written are not given here. pT = C[C@@H](OP(=O)(O)O)[C@H](N)C(=O)O Where only a bound is given, the exact number is not on record here.

B1: Pin1 isolated PPIase domain PPIase domain (protein)
chain: PARVRCSHLLVKHSQSRRPSSWRQEKITRTKEEALELINGYIQKIKSGEEDFESLASQFSDCSSAKARGDLGAFSRGQMQKPFEDASFALRTGEMSGPVFTDSGIHIILRTE
Consider B1, for which the Kd was over 1000 µM.

One may read the Kd as the constant that tells how readily two partners part at equilibrium. High values mean a looser complex, low ones a tighter complex.
